B1: NCK2 (parent)
chain: YVERKNSLKKGSLVKNLKDTLGLG

Variants of: B1
Test: protein stability index of a GFP-peptide fusion (GPS, HEK-293T) (PSI 1-6); higher = more stable
Conditions: c terminus: a fixed tail appended
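Further: lentivirally expressed fusions sorted by FACS into six bins by GFP to DsRed ratio, PSI derived from sequencing read proportions per bin multiplied by bin number.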

Variant | protein stability index
YVERKNSLKKGSLVGNLKDTLGLG | 2.49
YVERKNSLKKGSCVKNLKDTLGLG | 1.97
YVCRKNSLKKGSLVKNLKDTLGLG | 1.83
YVEPKNSLKKGSLVKNLKDTLGLG | 2.2
YVERKNSLKKLSLVKNLKDTLGLG | 1.87
YVERKNSLKKGSLVKNLKDTLILG | 1.9
YVERKNSLKKGSLVKNLKDRLGLG | 1.97
YVERKNSLKKGSPVKNLKDTLGLG | 3.05
YVEQKNSLKKGSLVKNLKDTLGLG | 2.2
YVERKNSLKKGSLVKDLKDTLGLG | 2.29
YVMRKNSLKKGSLVKNLKDTLGLG | 2.11
YVERKNSLKKGSLVKRLKDTLGLG | 1.98
YVERKNSLKKGSLVKNLKDTLGLR | 2.19
YVERKNSLKKGSLVKILKDTLGLG | 2.18
YVEVKNSLKKGSLVKNLKDTLGLG | 1.78
YVERKNSLKKGSLVKNLKDTLGLK | 2.13
YVERKYSLKKGSLVKNLKDTLGLG | 1.64
YVERKNSLKKGSLVMNLKDTLGLG | 2.47
IVERKNSLKKGSLVKNLKDTLGLG | 3.03
YVERANSLKKGSLVKNLKDTLGLG | 2.12
YYERKNSLKKGSLVKNLKDTLGLG | 3.01
YVERKNSLKKGSAVKNLKDTLGLG | 3.01
YVERKNSLKKGSLVKNLKMTLGLG | 2.6
YVERKNSLKKGSLVCNLKDTLGLG | 2.12

Variant | protein stability index
YVERKLSLKKGSLVKNLKDTLGLG | 1.1
YVERKNSLKKGSLVKNLKDTLGLA | 2.36
YVERKNSLKKGSLVKNLKDTLGLL | 1.28
YVERKNSLKKGSLVWNLKDTLGLG | 1.98
YVQRKNSLKKGSLVKNLKDTLGLG | 1.96
YVERKNSLKKGSLVKNLKDTRGLG | 1.98
YVERKNSLSKGSLVKNLKDTLGLG | 2.84
YVERKNSLKKGSLVKNLRDTLGLG | 2.46
WVERKNSLKKGSLVKNLKDTLGLG | 2.29
YVERKNSLKKGSKVKNLKDTLGLG | 2.38
YVERKNSEKKGSLVKNLKDTLGLG | 2.96
YVERKNSLKKGSLVKVLKDTLGLG | 1.83
YVERKNSLKKGSLVKNSKDTLGLG | 2.41
HVERKNSLKKGSLVKNLKDTLGLG | 4.01
YVERKNSLKKGSLVFNLKDTLGLG | 1.69
YVERKNSLKKGSLVKNLKDKLGLG | 2.37
YVERKNSLKKGSLVKNLKDTLELG | 2.34
YVERKNCLKKGSLVKNLKDTLGLG | 2.22
YVERKNSLKKGSIVKNLKDTLGLG | 2.13
YVERKNSLKKGSLVKNLKDILGLG | 3.27
YVERKNSLKKGSLVKNLWDTLGLG | 1.8
YVERKNSLKKGSNVKNLKDTLGLG | 2.44
YMERKNSLKKGSLVKNLKDTLGLG | 2.81
YVERKNSLDKGSLVKNLKDTLGLG | 2.37

Variant | protein stability index
YVERKNSLKKGSLVKMLKDTLGLG | 1.3
YVERKGSLKKGSLVKNLKDTLGLG | 2.38
YVERKNSLKKGSLVKKLKDTLGLG | 2.04
QVERKNSLKKGSLVKNLKDTLGLG | 4.01
YVERKNSLKKGFLVKNLKDTLGLG | 2.53
YVERKNSLKKGSLVKNLKDTLQLG | 2.31
YVLRKNSLKKGSLVKNLKDTLGLG | 2.07
YVERKNSLKKGSLVKNLKDTLGGG | 2.94
YVERKNSIKKGSLVKNLKDTLGLG | 2.27
YVERKNSLKKGSLVKNLKDTLTLG | 2.37
YVERKNSLKPGSLVKNLKDTLGLG | 1.88
YVERKNELKKGSLVKNLKDTLGLG | 2.9
YVERKNSLKKGSLVKNLKDTLGSG | 3.21
YVERKNSLKKGSLVKALKDTLGLG | 2.33
YVERKNSLKKGSLVKNTKDTLGLG | 2.79
YVERKNSLKKGSLVKNLKDTLGWG | 2.44
PVERKNSLKKGSLVKNLKDTLGLG | 3.8
YVERKHSLKKGSLVKNLKDTLGLG | 2.61
YVERKNSLKKGSLVKNLKDTSGLG | 2.51
YVERKNSLKKGSLVKNLKDTKGLG | 2.32
YVERKNSLKKGSLVKNLMDTLGLG | 1.72
YVERKNSLKKGSLVINLKDTLGLG | 1.77
YVERKNSLKKGGLVKNLKDTLGLG | 2.07
YVEMKNSLKKGSLVKNLKDTLGLG | 1.62

Variant | protein stability index
YVERKNSLKKGSLVKNLKDTTGLG | 2.44
YVERKNSLKKGSLVKNGKDTLGLG | 2.88
YVWRKNSLKKGSLVKNLKDTLGLG | 1.96
YVERKNSPKKGSLVKNLKDTLGLG | 2.8
YVERKNQLKKGSLVKNLKDTLGLG | 2.15
YVERKNSLKKGSLVKNKKDTLGLG | 3
YVERKNSLKFGSLVKNLKDTLGLG | 2.48
YVERKNSLKAGSLVKNLKDTLGLG | 2.11
YVERKQSLKKGSLVKNLKDTLGLG | 2.53
YVERKNSLKKGSLVKNLKDTLGNG | 2.9
YVERKNSLKKGSDVKNLKDTLGLG | 2.8
YVERKNSDKKGSLVKNLKDTLGLG | 2.92
YVERKNMLKKGSLVKNLKDTLGLG | 1.88
YGERKNSLKKGSLVKNLKDTLGLG | 3.19
YVERKNSLKKCSLVKNLKDTLGLG | 2.09
YVERKNSLKKGSLVNNLKDTLGLG | 2.41
YVERKNSLKKKSLVKNLKDTLGLG | 2.9
YCERKNSLKKGSLVKNLKDTLGLG | 2.47
YVERLNSLKKGSLVKNLKDTLGLG | 1.51
YVERKNSLVKGSLVKNLKDTLGLG | 2.48
YVERVNSLKKGSLVKNLKDTLGLG | 2.2
YVERKNSLKKGSLVKNLKDPLGLG | 2.21

Reference: the supplement of paper PMC10567573
